{"source": "patent US20210063414A1", "about": "“METHODS FOR PREVENTING AND/OR TREATING BONE LOSS CONDITIONS BY MODULATING IRISIN” (Dana-Farber Cancer Institute, Inc., priority 2018, published 2021)", "key": {"MLO-Y4 cells": {"test_system": "MLO-Y4 cells", "assay": "Integrin-like signaling (pFAK, pZyxin, pAKT, pCREB) in MLO-Y4 cells, immunoblot", "type": "cell-based", "protocol": "Integrin heterodimer binds to its ligand. The interaction results in phosphorylation of FAK and Zyxin, followed by phosphorylation of AKT (at T308) and CREB. PM is plasma membrane. FIG. 2C and FIG. 2D show the immunoblots. MLO-Y4 cells were seeded and incubated until 60% cell density. The cells were incubated with serum free medium (FreeStyle™ 293 medium) for 4 hours and were treated for indicated time with 10 nM norepinephrine or irisin (FIG. 2C) or indicated concentrations of irisin for 10 minutes (FIG. 2D). Cells were lysed to detect the indicated protein level using immunoblot analysis.\nCertain materials and methods were used to generate the results described herein. For example, the data shown in FIG. 1A resulted from MLO-Y4 (an osteocyte-like cell line) cells treated with the indicated concentration of irisin and hydrogen peroxide for 4 hours. Cells were stained with Hoechst 33342 (ThermoFisher Scientific, catalog number H3570) and Eth-D1 (ThermoFisher Scientific, catalog number E1169) and analyzed to determine the percentage of cell death using ImageJ. The data shown in FIG. 2D resulted from MLO-Y4 incubated in serum free medium (FreeStyle™ 293 expression medium, ThermoFisher Scientific, catalog number 12338018) for 4 hours followed by treatment of indicated concentrations of irisin for 10 minutes. Cells were lysed to detect the indicated protein level using immunoblot analysis (Cell Signaling Technology, catalog numbers 3283S, 3285S, 8467S, 3553S, 9198S, and 9104S; Abcam, catalog number ab49900-100ul). The data shown in FIG. 3 resulted from 3T3-F442A cells incubated in serum free medium for 4 hours followed by treatment of indicated concentrations of irisin for 10 minutes. Cells were lysed by RIPA buffer to detect the indicated protein level using immunoblot analysis. The data shown in FIG. 4 were generated from 100 nM flag-tagged irisin (Enzo life sciences, catalog number ADI-908-307-3010) incubated with 5 nM of the indicated 6 his-tag integrins (R & D Systems Inc., catalog numbers 7064-AB-025, 5668-A4-050, 5438-A9-050, 6357-AB-050, and 6579-AV-025) in the presence of RGDS peptide (R & D Systems Inc., catalog number 3498/10) or its control peptide (Enzo Life Sciences, catalog Number BML-P701-0005) followed by immunoprecipitation using 6 his-tag beads (ThermoFisher Scientific, catalog number R901-01). Co-precipitated irisin was analyzed by immunoblot analysis against flag tag (Sigma Aldrich, catalog number A8592). The data shown in FIGS. 5A and 5B were generated from MLO-Y4 cells treated and analyzed as in the experiments used to generate the data shown in FIG. 2D, except that pre-treatment of 100 nM RGDS (FIG. 5A) or echistatin (R & D Systems Inc., catalog number 3202/100U) (FIG. 5B) for 10 minutes was performed before irisin treatment. The data shown in FIGS. 6A and 6B were generated from MLO-Y4 cells incubated in serum free medium for 3 hours followed by treatment of indicated time of 10 nM irisin for 16 hours. RNAs were extracted from the cells and the sclerostin mRNA level was analyzed by qPCR (FIG. 6A) or treated and analyzed as in (FIG. 6A), except that pre-treatment of 10 μM RGDS, RGDyK (Selleck, catalog number S7844), or echistatin was performed for 10 minutes before irisin treatment. The data shown in FIGS. 7A and 7B were generated from 8 week-old mice injected with the indicated dose of irisin for 6 days. Tibias were collected and treated with collagenase to obtain mRNA from the osteocyte-enriched bones. Sclerostin mRNA level was analyzed by qPCR (FIG. 7A). Serum was collected to analyze the sclerostin protein level using ELISA kit (R&D Systems Inc., catalog number MSST00) (FIG. 7B). The data shown in FIG. 8 were generated from 8 week-old mice injected with the indicated dose of irisin for 6 days. Epididymal fats were collected, RNAs were extracted from the tissues, and mRNA levels of the indicated genes were analyzed by qPCR. […]"}, "[1]": {"assay": "Half-life of recombinant his-tag irisin in vivo, plasma immunoblot against his-tag", "conditions": "C57BL/6 mice, 1 mg/kg I.P.", "protocol": "C57BL/6 mice were injected with irisin (1 mg/kg, I.P.) or sterilized PBS and blood was collected at indicated time point. Irisin in plasma was detected using immunoblot analysis against his-tag."}}}
{"molecule": "irisin: secreted cleaved form of FNDC5; recombinant human/mouse irisin with C-terminal his tag produced in HEK293 cells (protein, left off: small tags and cut ends, secreted cleaved form of FNDC5; recombinant human/mouse irisin with C-terminal his tag produced in HEK293 cells) DSPSAPVNVTVRHLKANSAVVSWDVLEDEVVIGFAISQQKKDVRMLRFIQEVNTTTRSCALWDLEEDTEYIVHVQAISIQGQSPASEPVLFKTPREAEKMASKNKDEVTMKE", "values": [{"measurement": "phosphorylation of AKT on threonine 308", "setting": "MLO-Y4 cells; MLO-Y4, 10 nM irisin", "value": "phosphorylated on threonine 308"}, {"measurement": "phosphorylation of AKT serine at amino acid 473", "setting": "MLO-Y4 cells; MLO-Y4, 10 nM irisin", "value": "not induced"}, {"measurement": "time after which CREB was phosphorylated", "setting": "MLO-Y4 cells; MLO-Y4, 10 nM irisin", "value": 5, "unit": "min"}, {"measurement": "time to phosphorylation of FAK", "setting": "MLO-Y4 cells; MLO-Y4, 10 nM irisin", "value": 1, "unit": "min"}, {"measurement": "phosphorylation of Zyxin", "setting": "MLO-Y4 cells; MLO-Y4, irisin dose response, 10 minutes", "value": "phosphorylated potently"}, {"measurement": "irisin dose as low as which induced phosphorylation of FAK", "setting": "MLO-Y4 cells; MLO-Y4, serum free medium 4 hours, irisin 10 minutes", "value": 10, "unit": "pM"}, {"measurement": "half-life in vivo", "setting": "[1]", "value": "less than an hour"}]}
